In publication PMC3979729:

Target: TNFR (human (endogenous in primary CD4+ T cells)) (UniProt P19438)
Chain of UniProt P19438 (P19438 30-455): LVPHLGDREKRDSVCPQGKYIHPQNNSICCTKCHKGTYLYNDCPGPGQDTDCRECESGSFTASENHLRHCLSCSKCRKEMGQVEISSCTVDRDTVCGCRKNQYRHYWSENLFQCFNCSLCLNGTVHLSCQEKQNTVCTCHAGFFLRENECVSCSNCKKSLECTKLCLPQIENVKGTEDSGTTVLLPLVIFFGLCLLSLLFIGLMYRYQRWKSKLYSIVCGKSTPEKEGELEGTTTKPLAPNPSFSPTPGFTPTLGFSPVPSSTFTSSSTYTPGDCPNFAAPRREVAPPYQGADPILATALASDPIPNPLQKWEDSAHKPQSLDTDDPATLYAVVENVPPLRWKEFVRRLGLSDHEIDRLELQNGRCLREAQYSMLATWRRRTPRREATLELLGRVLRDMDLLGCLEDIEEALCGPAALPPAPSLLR

tumor necrosis factor alpha (TNF-α) (from UniProt P01375 1-233) (ligand)
other (% necroptosis): 0.3
